Drawing on paper PMC5177531 (2016), this text covers Ki for 1 molecule.

The target of this experiment is T1, mDOR-1 (Mus musculus, UniProt P32300).
T1 chain: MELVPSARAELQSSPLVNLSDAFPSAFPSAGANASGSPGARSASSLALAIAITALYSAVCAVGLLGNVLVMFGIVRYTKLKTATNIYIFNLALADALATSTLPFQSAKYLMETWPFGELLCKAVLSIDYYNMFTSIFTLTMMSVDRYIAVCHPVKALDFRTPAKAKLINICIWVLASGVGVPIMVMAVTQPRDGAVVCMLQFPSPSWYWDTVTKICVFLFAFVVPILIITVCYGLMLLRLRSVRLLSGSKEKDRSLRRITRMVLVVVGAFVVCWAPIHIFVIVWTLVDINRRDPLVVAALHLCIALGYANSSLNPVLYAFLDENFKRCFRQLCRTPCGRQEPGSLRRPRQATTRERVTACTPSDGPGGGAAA
As to the kind of experiment: 125I-IBNtxA competition, CHO membranes.

Non-standard residues stand in square brackets, D forms with d. No end group written: not given here. *: point of attachment. NMeF = CN[C@@H](Cc1ccccc1)C(=O)O; NHCH2CH2OH = OCCN* Where only a bound is given, the exact number is not on record here.

B1: DAMGO (peptide)
chain: Y[dA]G[NMeF][NHCH2CH2OH]
As a reminder, the Ki is a dissociation constant, usually derived from enzyme kinetics or from competition with a known ligand. A high value points to weaker binding. In turn, B1 displayed a Ki of over 500 nM.
